Laboratory results: doi:10.1101/2021.05.03.442466

How the values were obtained:
[1] = molecular target: salt stripped chicken erythrocyte mononucleosomes (chicken (endogenous in erythrocytes)); assay: native gel or EMSA
[2] = molecular target: HMGN1 (UniProt P05114); assay: co-IP
[3] = molecular target: HMGN2 (UniProt P05204); assay: co-IP

| H3K27ac level in HA complexes over LA MNs (dot blot) [1] [times] | H3K27ac level in HMGN-bound ON over input ON (dot blot) [2] [fold] | H3K27ac signal in HMGN1-bound over input nucleosomes (Western) [2] [fold] | H3K27ac level in HMGN-bound ON over input ON (dot blot) [3] [fold] | H3K27ac level in HA over LA fraction (Western) [1] [fold] | percent of total MNs not shifted (LA fraction) at HMGN:MN ratio 2.0 [1] [%] | percent of total MNs shifted (HA fraction) at HMGN1:MN ratio 0.2 [1] [%] | Molecule |
| --- | --- | --- | --- | --- | --- | --- | --- |
| 1.5 |  |  |  |  |  |  | HMGN2 (from UniProt P05204 1-90) (natural protein) |
|  | > 3 | 2.7 | > 3 |  |  |  | salt-stripped oligonucleosomes from mouse embryonic fibroblasts (complex) |
| 1.5 |  |  |  | 2 | 12 | 9 | HMGN1 (natural protein) MPKRKVSSAEGAAKEEPKRRSARLSAKPPAKVEAKPKKAAAKDKSSDKKVQTKGKRGAKGKQAEVANQETKEDLPAENGETKTEESPASDEAGEKEAKSD |
